Test results taken from US20230220048A1.

Biological target: recombinant human FcRn (human) (UniProt P55899)
Test: SPR, pH 5.8 (comparison value, data not shown)

recombinant human FcRn (human), sequence (P55899 24-297): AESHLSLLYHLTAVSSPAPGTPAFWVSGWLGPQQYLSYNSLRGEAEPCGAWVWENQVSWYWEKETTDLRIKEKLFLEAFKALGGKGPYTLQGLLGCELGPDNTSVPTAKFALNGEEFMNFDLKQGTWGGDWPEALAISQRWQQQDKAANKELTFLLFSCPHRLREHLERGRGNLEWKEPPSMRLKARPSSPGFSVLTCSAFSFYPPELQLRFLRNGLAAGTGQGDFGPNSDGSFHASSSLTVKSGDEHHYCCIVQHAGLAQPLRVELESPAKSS

Kd: 1000 to 2000 nM
Substance: wild type HSA (from UniProt P02768 25-607)
